Assay results taken from US20100095387A1, “METHODS AND REAGENTS FOR SCREENING NEW DRUGS AND FOR TREATING ION PUMP ASSOCIATED DISORDERS AND DISEASES” (priority 2005, published 2010).

B1: C-Ag15: 15-kD COOH-terminal fragment of agrin created by deleting 37 amino acids from the NH2 terminus of C-Ag20, SEQ. ID NO. 3 (protein)
chain: MDPWIGKAAERADYMALAIVDGHLQLSYDLASQPVVLRSTVKVNTNRWLRVRAHREHREGSLQVGNEAPVTSSSPLGATQLDTDGALWLGGLQKLPVGQPLPKAYGTGFVGCLRNVVGHRQLHLLEDAVTKPELRPCPTLNSKLGPEQKLISEEDLNSAVDHHHHHH
modifications: Synthetically produced sequence
B2: C-Ag20z0: C-Ag20 isoform having the z0 splice variant, SEQ. ID NO. 1 (protein)
chain: MDPRTYIEYLNAVTESEKALQSNHFELTLRTEATQGWLVLWIGKAAERADYMALAIVDGHLQLSYDLASQPVVLRSTVKVNTNRWLRVRAHREHREGSLQVGNEAPVTSSSPLGATQLDTDGALWLGGLQKLPVGQPLPKAYGTGFVGCLRNVVGHRQLHLLEDAVTKPELRPCPTLNSKLGPEQKLISEEDLNSAVDHHHHHH
modifications: Synthetically produced sequence

Tested on: cultured cortical neurons
Test: Firing properties of cultured cortical neurons in normal external solution
Type: cell-based, mouse
Settings: absence of TTX and neurotransmitter receptor antagonists

Row | Molecule | frequency of spontaneous action potentials
1 | B1 | inhibited spontaneous activity
2 | B2 | significant and reversible increase
